{
  "source": "IntAct's records for PubMed 16311606",
  "parents": {"B1": {"name": "Polycystin-2 (Homo sapiens), Q13563 (parent)", "chain": "MVNSSRVQPQQPGDAKRPPAPRAPDPGRLMAGCAAVGASLAAPGGLCEQRGLEIEMQRIRQAAARDPPAGAAASPSPPLSSCSRQAWSRDNPGFEAEEEEEEVEGEEGGMVVEMDVEWRPGSRRSAASSAVSSVGARSRGLGGYHGAGHPSGRRRRREDQGPPCPSPVGGGDPLHRHLPLEGQPPRVAWAERLVRGLRGLWGTRLMEESSTNREKYLKSVLRELVTYLLFLIVLCILTYGMMSSNVYYYTRMMSQLFLDTPVSKTEKTNFKTLSSMEDFWKFTEGSLLDGLYWKMQPSNQTEADNRSFIFYENLLLGVPRIRQLRVRNGSCSIPQDLRDEIKECYDVYSVSSEDRAPFGPRNGTAWIYTSEKDLNGSSHWGIIATYSGAGYYLDLSRTREETAAQVASLKKNVWLDRGTRATFIDFSVYNANINLFCVVRLLVEFPATGGVIPSWQFQPLKLIRYVTTFDFFLAACEIIFCFFIFYYVVEEILEIRIHKLHYFRSFWNCLDVVIVVLSVVAIGINIYRTSNVEVLLQFLEDQNTFPNFEHLAYWQIQFNNIAAVTVFFVWIKLFKFINFNRTMSQLSTTMSRCAKDLFGFAIMFFIIFLAYAQLAYLVFGTQVDDFSTFQECIFTQFRIILGDINFAEIEEANRVLGPIYFTTFVFFMFFILLNMFLAIINDTYSEVKSDLAQQKAEMELSDLIRKGYHKALVKLKLKKNTVDDISESLRQGGGKLNFDELRQDLKGKGHTDAEIEAIFTKYDQDGDQELTEHEHQQMRDDLEKEREDLDLDHSSLPRPMSSRSFPRSLDDSEEDDDEDSGHSSRRRGSISSGVSYEEFQVLVRRVDRMEHSIGSIVSKIDAVIVKLEIMERAKLKRREVLGRLLDGVAEDERLGRDSEIHREQMERLVREELERWESDDAASQISHGLGTPVGLNGQPRPRSSRPSSSQSTEGMEGAGGNGSSNVHV", "partner": "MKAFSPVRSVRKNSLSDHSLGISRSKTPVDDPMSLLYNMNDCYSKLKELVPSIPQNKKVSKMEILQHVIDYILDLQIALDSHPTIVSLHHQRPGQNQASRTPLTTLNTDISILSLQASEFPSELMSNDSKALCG"}},
  "data": [
    {"variants_of": "B1", "details": "with id2_human ID2, Q02363", "values": [
      {"variant": "S812A", "effect of a mutation on the interaction": "disrupting interaction"}
    ]}
  ]
}
